Measured values: US6960559B1, “Neurite growth regulatory factors” (University of Zurich, priority 1988, dated 2005)
“And” between values parts separate entries of the source, which are not always exact repeats. Identical values can stand only once.

Legend:
C6 cells = assay: C6 cell spreading on CNS myelin or PLYS with protease inhibitors; assay type: cell-based, rat; settings: C6 cells; spreading on PLYS minus spreading on CNS myelin
Method: Rat C6, mouse NIH 3T3 and B16 cells were cultured in Dulbecco's modified Eagle's medium (DMEM) supplemented with 10% fetal calf serum (FCS), usually to maximally 70-80% confluency. Cells were harvested with a short trypsin treatment (0.1% in Ca^2+/Mg^2+-free Hank's medium for 90 seconds) stopped by addition of FCS in excess, collected by centrifugation. Cells were resuspended in either DMEM/FCS or defined serum-free medium (MEM) and used for experiments. […]
Myelin from rat spinal cord (CNS) or sciatic nerve (PNS) purified on a discontinuous sucrose gradient as described in Section 6.1.5., was dried overnight onto PLYS coated wells (20 μg protein/well of 100 mm^2 surface). […] Experiments were scored at different time points using a phase contrast microscope equipped with a photocamera. Quantifications were done using a surface integration program; three arbitrary fields were photographed for each well at a magnitude of 80×, at least 25 cells per picture were measured. […] Results are expressed as μ^2 of projected cell surface, or as degree, which was calculated by subtracting from the projected surface value of a spreading cell, the surface value of a completely spheric cell.

cbz-FAF[^125I]Y-NH2 = assay: Degradation of cbz-FAF[125I]Y-NH2 by defined proteases and C6 cell fractions; assay type: biochemical; settings: 37° C., pH 7.4
Method: Preparation of plasma membrane from C6 cells was performed according to (Raper and Kapfhammer, 1990, Neuron 2:21-29) with some modifications. Briefly, C6 cells were cultured in 30 culture dishes (13.5 cm diameter). At confluency, the culture medium was removed and the cell layers were frozen to −20° C. All subsequent manipulations were performed at 4° C.: cell debris were collected using a rubber policeman in 100 ml CMF-Hank's and further homogenized by 10 strokes in a Dounce homogenizer with teflon plunger. A small aliquot of this suspension was stored at −20° C. and used later (homogenate-fraction). The nuclear pellet was obtained by low speed centrifugation (10 min, 1000×g) in a Sorvall S22 rotor and stored at […] A crude vesicular fraction was obtained by centrifugating the nuclear supernatant in a Sorvall S22 rotor (20,000×g, 30 min), and was resuspended in 10 ml CMF-Hank's. After adding 20 ml 2.25 M sucrose in CMF-Hank's, this suspension was loaded on 4×8 ml 2.25 M sucrose in CMF-Hank's and centrifuged at 80,000×g for 1 h in a Beckman SW28 motor. […]
(§1) For the quantification of the activity, the reaction was stopped by addition of an equal volume of chloroform. […] Activity is expressed as % radioactivity contained in the aqueous phase. 100% is the sum of the radioactivity of both phases.

[1] = system: C6 plasma membrane associated metalloendoprotease; assay: Enzyme assay: cbz-FAF[125I]Y-NH2 degradation by C6 plasma membranes with protease blockers; assay type: biochemical, rat
Method: For most experiments, 70-80% confluent cell layers (1 cm^2 wells, 100 μl MEMα) or 2-5 μg C6 plasma membrane (100 μl MEMα) were used. […] If indicated, cell layers or plasma membrane suspensions were preincubated for 30 min with protease blockers or peptides. NEM or iodacetamide incubations of plasma membranes were performed at pH 8.5. The incubation was stopped by loading a 10 μl aliquot of the incubation medium on a thin layer chromatography plate (10 cm height, Kieselgel 60 F254, MERCK, Germany) and air dried. […] Plates were then air dried and exposed on Kodak X-OMAT films (NY, USA) with an intensifying screen. To identify the degradation products on thin-layer chromatography, we run reference peptides under the same conditions.
as §1

Row | Molecule | Amount necessary to degrade 50% of substrate in 30 min (cbz-FAF[^125I]Y-NH2) | also measured
1 | 2-macroglobulin: general protease inhibitor (protein, UniProt P01023 24-1474, looked up) Alpha-2-macroglobulin: SVSGKPQYMVLVPSLLHTETTEKGCVLLSYLNETVTVSASLESVRGNRSLFTDLEAENDVLHCVAFAVPKSSSNEEVMFLTVQVKGPTQEFKKRTTVMVKNEDSLVFVQTDKSIYKPGQTVKFRVVSMDENFHPLNELIPLVYIQDPKGNRIAQWQSFQLEGGLKQFSFPLSSEPFQGSYKVVVQKKSGGRTEHPFTVEEFVLPKFEVQVTVPKIITILEEEMNVSVCGLYTYGKPVPGHVTVSICRKYSDASDCHGEDSQAFCEKFSGQLNSHGCFYQQVKTKVFQLKRKEYEMKLHTEAQIQEEGTVVELTGRQSSEITRTITKLSFVKVDSHFRQGIPFFGQVRLVDGKGVPIPNKVIFIRGNEANYYSNATTDEHGLVQFSINTTNVMGTSLTVRVNYKDRSPCYGYQWVSEEHEEAHHTAYLVFSPSKSFVHLEPMSHELPCGHTQTVQAHYILNGGTLLGLKKLSFYYLIMAKGGIVRTGTHGLLVKQEDMKGHFSISIPVKSDIAPVARLLIYAVLPTGDVIGDSAKYDVENCLANKVDLSFSPSQSLPASHAHLRVTAAPQSVCALRAVDQSVLLMKPDAELSASSVYNLLPEKDLTGFPGPLNDQDNEDCINRHNVYINGITYTPVSSTNEKDMYSFLEDMGLKAFTNSKIRKPKMCPQLQQYEMHGPEGLRVGFYESDVMGRGHARLVHVEEPHTETVRKYFPETWIWDLVVVNSAGVAEVGVTVPDTITEWKAGAFCLSEDAGLGISSTASLRAFQPFFVELTMPYSVIRGEAFTLKATVLNYLPKCIRVSVQLEASPAFLAVPVEKEQAPHCICANGRQTVSWAVTPKSLGNVNFTVSAEALESQELCGTEVPSVPEHGRKDTVIKPLLVEPEGLEKETTFNSLLCPSGGEVSEELSLKLPPNVVEESARASVSVLGDILGSAMQNTQNLLQMPYGCGEQNMVLFAPNIYVLDYLNETQQLTPEIKSKAIGYLNTGYQRQLNYKHYDGSYSTFGERYGRNQGNTWLTAFVLKTFAQARAYIFIDEAHITQALIWLSQRQKDNGCFRSSGSLLNNAIKGGVEDEVTLSAYITIALLEIPLTVTHPVVRNALFCLESAWKTAQEGDHGSHVYTKALLAYAFALAGNQDKRKEVLKSLNEEAVKKDNSVHWERPQKPKAPVGHFYEPQAPSAEVEMTSYVLLAYLTAQPAPTSEDLTSATNIVKWITKQQNAQGGFSSTQDTVVALHALSKYGAATFTRTGKAAQVTIQSSGTFSSKFQVDNNNRLLLQQVSLPELPGEYSMKVTGEGCVYLQTSLKYNILPEKEEFPFALGVQTLPQTCDEPKAHTSFQISLSVSYTGSRSASNMAIVDVKMVSGFIPLKPTVKMLERSNHVSRTEVSSNHVLIYLDKVSNQTLSLFFTVLQDVPVRDLKPAIVKVYDYYETDEFAIAEYNAPCSKDLGNA | – | Inhibition on CNS (%) (C6 cells): 18%
2 | papain: cysteine protease (protein, UniProt P00784 134-345, looked up) Papain: IPEYVDWRQKGAVTPVKNQGSCGSCWAFSAVVTIEGIIKIRTGNLNEYSEQELLDCDRRSYGCNGGYPWSALQLVAQYGIHYRNTYPYEGVQRYCRSREKGPYAAKTDGVRQVQPYNEGALLYSIANQPVSVVLEAAGKDFQLYRGGIFVGPCGNKVDHAVAAVGYGPNYILIKNSWGTGWGENGYIRIKRGTGNSYGVCGLYTSSFYPVKN | 2 µg and 2.0 µg | –
3 | soybean trypsin inhibitor: serine protease blocker (protein, UniProt P01070 25-205, looked up) Trypsin inhibitor A: DFVLDNEGNPLENGGTYYILSDITAFGGIRAAPTGNERCPLTVVQSRNELDKGIGTIISSPYRIRFIAEGHPLSLKFDSFAVIMLCVGIPTEWSVVEDLPEGPAVKIGENKDAMDGWFRLERVSDDEFNNYKLVFCPQQAEDDKCGDIGISIDHDDGTRRLVVSKNKPLVVQFQKLDKESL | – | Effect on cbz-FAF[^125I]Y-NH2 degradation by C6 plasma membranes, in words [1]: had no effect
4 | tPA: tissue-type plasminogen activator (protein, UniProt P00750 36-562, looked up) Tissue-type plasminogen …: SYQVICRDEKTQMIYQQHQSWLRPVLRSNRVEYCWCNSGRAQCHSVPVKSCSEPRCFNGGTCQQALYFSDFVCQCPEGFAGKCCEIDTRATCYEDQGISYRGTWSTAESGAECTNWNSSALAQKPYSGRRPDAIRLGLGNHNYCRNPDRDSKPWCYVFKAGKYSSEFCSTPACSEGNSDCYFGNGSAYRGTHSLTESGASCLPWNSMILIGKVYTAQNPSAQALGLGKHNYCRNPDGDAKPWCHVLKNRRLTWEYCDVPSCSTCGLRQYSQPQFRIKGGLFADIASHPWQAAIFAKHRRSPGERFLCGGILISSCWILSAAHCFQERFPPHHLTVILGRTYRVVPGEEEQKFEVEKYIVHKEFDDDTYDNDIALLQLKSDSSRCAQESSVVRTVCLPPADLQLPDWTECELSGYGKHEALSPFYSERLKEAHVRLYPSSRCTSQHLLNRTVTDNMLCAGDTRSGGPQANLHDACQGDSGGPLVCLNDGRMTLVGIISWGLGCGQKDVPGVYTKVTNYLDWIRDNMRP | >100 µg | –
